# B1: #4 bispecific molecule (bispecific antibody, human IgG1, N297A)
# heavy: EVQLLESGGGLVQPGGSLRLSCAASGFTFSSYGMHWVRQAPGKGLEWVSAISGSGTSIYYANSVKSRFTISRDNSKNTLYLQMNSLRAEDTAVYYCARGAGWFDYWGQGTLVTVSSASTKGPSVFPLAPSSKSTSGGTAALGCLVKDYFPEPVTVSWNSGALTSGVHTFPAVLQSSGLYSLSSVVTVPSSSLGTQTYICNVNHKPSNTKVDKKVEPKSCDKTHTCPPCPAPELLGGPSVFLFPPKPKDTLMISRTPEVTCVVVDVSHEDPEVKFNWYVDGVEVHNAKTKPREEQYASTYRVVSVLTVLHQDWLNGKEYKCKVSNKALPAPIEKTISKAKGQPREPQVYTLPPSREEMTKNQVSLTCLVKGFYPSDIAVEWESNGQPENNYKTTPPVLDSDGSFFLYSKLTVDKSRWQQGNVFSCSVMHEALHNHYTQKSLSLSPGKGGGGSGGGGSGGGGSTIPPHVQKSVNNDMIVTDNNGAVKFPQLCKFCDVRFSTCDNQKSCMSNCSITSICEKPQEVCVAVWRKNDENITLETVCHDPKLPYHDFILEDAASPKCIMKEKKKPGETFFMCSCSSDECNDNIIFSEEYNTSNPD
# VL: QSVLTQPPSASGTPGQRVTISCSGSTSNIGSNTVNWYQQLPGTAPKLLIYGKNIRPNGVPDRFSGSKSGTSASLAISGLHSEDEADYYCQSYDSSLSGWVFGGGTKLTVL
# notes: also called #4 (TRAP); B7-H3/TGFβ bispecific molecule #4
# B2: #4 (mono) B7-H3 mono antibody free of TGFβ binding portion (antibody, human IgG1, N297A, V domains shown)
# VH: EVQLLESGGGLVQPGGSLRLSCAASGFTFSSYGMHWVRQAPGKGLEWVSAISGSGTSIYYANSVKSRFTISRDNSKNTLYLQMNSLRAEDTAVYYCARGAGWFDYWGQGTLVTVSS
# VL: QSVLTQPPSASGTPGQRVTISCSGSTSNIGSNTVNWYQQLPGTAPKLLIYGKNIRPNGVPDRFSGSKSGTSASLAISGLHSEDEADYYCQSYDSSLSGWVFGGGTKLTVL
# B3: #7 bispecific molecule (bispecific antibody, human IgG1, N297A)
# heavy: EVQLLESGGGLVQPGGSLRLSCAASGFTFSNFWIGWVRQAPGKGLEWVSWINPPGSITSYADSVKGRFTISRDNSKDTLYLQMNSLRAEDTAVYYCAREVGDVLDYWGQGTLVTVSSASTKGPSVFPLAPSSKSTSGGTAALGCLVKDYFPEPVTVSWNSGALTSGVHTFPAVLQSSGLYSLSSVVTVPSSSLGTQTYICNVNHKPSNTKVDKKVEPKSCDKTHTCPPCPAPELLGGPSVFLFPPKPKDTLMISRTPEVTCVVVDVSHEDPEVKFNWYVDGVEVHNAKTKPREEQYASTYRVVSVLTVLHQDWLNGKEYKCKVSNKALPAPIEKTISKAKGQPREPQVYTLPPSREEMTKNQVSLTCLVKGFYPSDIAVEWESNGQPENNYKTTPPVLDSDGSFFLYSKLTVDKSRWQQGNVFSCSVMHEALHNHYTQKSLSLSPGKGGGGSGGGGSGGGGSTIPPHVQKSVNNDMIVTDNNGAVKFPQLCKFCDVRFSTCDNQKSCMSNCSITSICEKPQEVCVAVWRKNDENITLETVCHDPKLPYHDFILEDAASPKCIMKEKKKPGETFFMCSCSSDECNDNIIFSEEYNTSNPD
# VL: QSVLTQPPSASGTPGQRVTISCTGTSSDIGRYNYVSWYQQLPGTAPKLLIYRNTQRPSGVPDRFSGSKSGTSASLAISGLRSEDEADYYCGTWDSSLNAYVFGGGTKLTVL
# notes: also called #7 (TRAP); B7-H3/TGFβ bispecific molecule #7
# B4: #3 bispecific molecule (bispecific antibody, human IgG1, N297A)
# heavy: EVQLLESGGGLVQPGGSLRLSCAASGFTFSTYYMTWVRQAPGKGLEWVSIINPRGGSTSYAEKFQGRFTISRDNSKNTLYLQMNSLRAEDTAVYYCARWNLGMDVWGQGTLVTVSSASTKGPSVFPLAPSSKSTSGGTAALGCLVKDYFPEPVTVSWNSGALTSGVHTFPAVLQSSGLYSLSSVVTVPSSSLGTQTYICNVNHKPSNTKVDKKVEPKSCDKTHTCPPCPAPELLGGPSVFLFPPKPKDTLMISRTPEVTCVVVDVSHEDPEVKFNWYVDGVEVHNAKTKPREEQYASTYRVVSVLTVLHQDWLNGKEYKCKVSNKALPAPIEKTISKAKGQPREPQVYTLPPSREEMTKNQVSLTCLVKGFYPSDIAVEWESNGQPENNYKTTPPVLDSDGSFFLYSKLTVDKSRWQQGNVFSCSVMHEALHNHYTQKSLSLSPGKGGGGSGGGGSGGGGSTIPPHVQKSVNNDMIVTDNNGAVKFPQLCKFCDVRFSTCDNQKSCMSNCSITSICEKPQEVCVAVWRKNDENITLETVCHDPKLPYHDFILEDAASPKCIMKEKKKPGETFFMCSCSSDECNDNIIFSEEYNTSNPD
# VL: EIVLTQSPGTLSLSPGERATLSCRVSQSISSYLNWYQQKPGQAPRLLIYDASHRATGIPDRFSGSGSGTDFTLTISRLEPEDFAVYYCQQYYAPSVTFGQGTKVEIK
# notes: also called #3 (TRAP); B7-H3/TGFβ bispecific molecule #3
# B5: #3 (mono) B7-H3 mono antibody free of TGFβ binding portion (antibody, human IgG1, N297A, V domains shown)
# VH: EVQLLESGGGLVQPGGSLRLSCAASGFTFSTYYMTWVRQAPGKGLEWVSIINPRGGSTSYAEKFQGRFTISRDNSKNTLYLQMNSLRAEDTAVYYCARWNLGMDVWGQGTLVTVSS
# VL: EIVLTQSPGTLSLSPGERATLSCRVSQSISSYLNWYQQKPGQAPRLLIYDASHRATGIPDRFSGSGSGTDFTLTISRLEPEDFAVYYCQQYYAPSVTFGQGTKVEIK
# B6: #6 bispecific molecule (bispecific antibody, human IgG1, N297A)
# heavy: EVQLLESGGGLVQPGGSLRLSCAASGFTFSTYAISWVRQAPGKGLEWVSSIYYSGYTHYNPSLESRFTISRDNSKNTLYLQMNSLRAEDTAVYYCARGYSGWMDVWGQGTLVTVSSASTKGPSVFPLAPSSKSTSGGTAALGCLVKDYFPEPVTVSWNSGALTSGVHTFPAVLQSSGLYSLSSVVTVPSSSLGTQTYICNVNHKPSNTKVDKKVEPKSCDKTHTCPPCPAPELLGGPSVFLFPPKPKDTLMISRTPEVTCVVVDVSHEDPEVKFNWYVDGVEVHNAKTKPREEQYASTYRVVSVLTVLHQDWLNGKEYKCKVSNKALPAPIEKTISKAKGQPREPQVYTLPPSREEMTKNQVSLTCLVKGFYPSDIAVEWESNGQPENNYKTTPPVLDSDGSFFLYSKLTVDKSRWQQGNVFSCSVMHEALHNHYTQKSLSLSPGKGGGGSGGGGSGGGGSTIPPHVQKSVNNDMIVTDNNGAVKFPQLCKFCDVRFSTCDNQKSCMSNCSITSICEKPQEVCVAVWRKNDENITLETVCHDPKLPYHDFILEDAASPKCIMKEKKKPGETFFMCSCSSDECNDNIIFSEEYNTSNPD
# VL: QSVLTQPPSASGTPGQRVTISCGGNNIGSKSVHWYQQLPGTAPKLLIYDNNKRPSGVPNRFSGSKSGTSASLAISGLRSEDEADYYCAAWDDSLNVPVFGGGTKLTVL
# notes: also called #6 (TRAP); B7-H3/TGFβ bispecific molecule #6
# B7: #9 bispecific molecule (bispecific antibody, human IgG1, N297A)
# heavy: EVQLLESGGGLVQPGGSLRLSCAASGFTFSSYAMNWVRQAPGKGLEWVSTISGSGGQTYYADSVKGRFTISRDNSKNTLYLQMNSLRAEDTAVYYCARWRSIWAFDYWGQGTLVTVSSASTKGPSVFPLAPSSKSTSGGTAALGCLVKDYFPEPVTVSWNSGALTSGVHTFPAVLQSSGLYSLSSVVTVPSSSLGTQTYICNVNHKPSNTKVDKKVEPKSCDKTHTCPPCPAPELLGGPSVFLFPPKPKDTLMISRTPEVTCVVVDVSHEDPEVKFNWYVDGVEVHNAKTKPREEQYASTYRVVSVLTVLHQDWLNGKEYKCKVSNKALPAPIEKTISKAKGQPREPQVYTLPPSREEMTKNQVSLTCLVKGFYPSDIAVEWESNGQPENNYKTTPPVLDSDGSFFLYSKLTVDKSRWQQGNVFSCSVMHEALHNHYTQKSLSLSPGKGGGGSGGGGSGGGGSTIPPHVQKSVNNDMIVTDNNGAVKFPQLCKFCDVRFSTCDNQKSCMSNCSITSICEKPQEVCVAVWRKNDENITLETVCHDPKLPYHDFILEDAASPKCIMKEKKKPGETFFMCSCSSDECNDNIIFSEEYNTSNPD
# VL: QSVLTQPPSASGTPGQRVTISCSDNNIGSKSVHWYQQLPGTAPKLLIYDNNKRPSGVPDRFSGSKSGTSASLAISGLRSEDEADYYCGTWDDSLSGPVFGGGTKLTVL
# notes: also called #9 (TRAP); B7-H3/TGFβ bispecific molecule #9
# B8: #5 bispecific molecule (bispecific antibody, human IgG1, N297A)
# heavy: not shown
# VL: QSVLTQPPSASGTPGQRVTISCSGSSSNIGSNYVYWYQQLPGTAPKLLIYRNNQRPSGVPDRFSGSKSGTSASLAISGLRSEDEADYYCGTWDSSLSGVVFGGGTKLTVL
# notes: also called #5 (TRAP); B7-H3/TGFβ bispecific molecule #5
# B9: #1 bispecific molecule (bispecific antibody, human IgG1, N297A)
# heavy: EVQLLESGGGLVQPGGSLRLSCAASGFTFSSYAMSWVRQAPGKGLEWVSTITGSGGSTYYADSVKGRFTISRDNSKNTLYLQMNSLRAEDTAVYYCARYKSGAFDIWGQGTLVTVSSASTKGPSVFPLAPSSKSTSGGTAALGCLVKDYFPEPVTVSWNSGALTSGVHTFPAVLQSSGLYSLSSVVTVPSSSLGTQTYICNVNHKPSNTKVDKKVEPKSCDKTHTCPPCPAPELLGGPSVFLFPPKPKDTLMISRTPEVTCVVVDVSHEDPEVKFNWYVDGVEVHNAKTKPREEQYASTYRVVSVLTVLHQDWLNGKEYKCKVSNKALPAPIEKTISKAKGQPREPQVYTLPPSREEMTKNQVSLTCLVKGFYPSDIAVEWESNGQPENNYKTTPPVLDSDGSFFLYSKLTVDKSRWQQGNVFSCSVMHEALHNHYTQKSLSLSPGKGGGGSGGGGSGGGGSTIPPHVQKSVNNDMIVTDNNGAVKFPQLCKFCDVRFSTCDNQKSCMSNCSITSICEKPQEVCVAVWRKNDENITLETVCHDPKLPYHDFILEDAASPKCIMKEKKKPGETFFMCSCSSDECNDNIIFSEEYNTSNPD
# VL: EIVLTQSPGTLSLSPGERATLSCRASQGIGNYLGWYQQKPGQAPRLLIYTASSLQSGIPDRFSGSGSGTDFTLTISRLEPEDFAVYYCQQGYSTPSWTFGQGTKVEIK
# notes: also called #1 (TRAP); B7-H3/TGFβ bispecific molecule #1
# B10: #1 (mono) B7-H3 mono antibody free of TGFβ binding portion (antibody, human IgG1, N297A, V domains shown)
# VH: EVQLLESGGGLVQPGGSLRLSCAASGFTFSSYAMSWVRQAPGKGLEWVSTITGSGGSTYYADSVKGRFTISRDNSKNTLYLQMNSLRAEDTAVYYCARYKSGAFDIWGQGTLVTVSS
# VL: EIVLTQSPGTLSLSPGERATLSCRASQGIGNYLGWYQQKPGQAPRLLIYTASSLQSGIPDRFSGSGSGTDFTLTISRLEPEDFAVYYCQQGYSTPSWTFGQGTKVEIK
# B11: #8 bispecific molecule (bispecific antibody, human IgG1, N297A)
# heavy: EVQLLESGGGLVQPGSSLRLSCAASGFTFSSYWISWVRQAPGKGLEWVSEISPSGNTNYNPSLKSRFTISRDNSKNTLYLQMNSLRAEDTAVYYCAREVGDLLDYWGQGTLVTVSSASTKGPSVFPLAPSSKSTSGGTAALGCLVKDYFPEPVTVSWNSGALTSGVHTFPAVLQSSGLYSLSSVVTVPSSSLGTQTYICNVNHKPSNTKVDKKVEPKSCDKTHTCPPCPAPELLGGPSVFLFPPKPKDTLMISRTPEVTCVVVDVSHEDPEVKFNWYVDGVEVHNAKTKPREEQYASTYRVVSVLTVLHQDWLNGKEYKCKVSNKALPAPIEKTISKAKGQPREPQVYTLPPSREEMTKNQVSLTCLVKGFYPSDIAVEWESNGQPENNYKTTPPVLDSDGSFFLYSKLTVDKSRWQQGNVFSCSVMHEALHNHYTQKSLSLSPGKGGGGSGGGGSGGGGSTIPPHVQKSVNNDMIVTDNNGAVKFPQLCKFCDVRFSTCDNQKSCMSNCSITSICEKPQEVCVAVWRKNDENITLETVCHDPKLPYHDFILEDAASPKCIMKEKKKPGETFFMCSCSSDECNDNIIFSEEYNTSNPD
# VL: QSVLTQPPSASGTPGQRVTISCSGSNIGNNYVSWYQQLPGTAPKLLIYQDSKRPSGVPDRFSGSKSGTSASLAISGLRSEDEADYYCLVWDRSSDHFVFGGGTKLTVL
# notes: also called #8 (TRAP); B7-H3/TGFβ bispecific molecule #8
# B12: #2 bispecific molecule (bispecific antibody, human IgG1, N297A)
# heavy: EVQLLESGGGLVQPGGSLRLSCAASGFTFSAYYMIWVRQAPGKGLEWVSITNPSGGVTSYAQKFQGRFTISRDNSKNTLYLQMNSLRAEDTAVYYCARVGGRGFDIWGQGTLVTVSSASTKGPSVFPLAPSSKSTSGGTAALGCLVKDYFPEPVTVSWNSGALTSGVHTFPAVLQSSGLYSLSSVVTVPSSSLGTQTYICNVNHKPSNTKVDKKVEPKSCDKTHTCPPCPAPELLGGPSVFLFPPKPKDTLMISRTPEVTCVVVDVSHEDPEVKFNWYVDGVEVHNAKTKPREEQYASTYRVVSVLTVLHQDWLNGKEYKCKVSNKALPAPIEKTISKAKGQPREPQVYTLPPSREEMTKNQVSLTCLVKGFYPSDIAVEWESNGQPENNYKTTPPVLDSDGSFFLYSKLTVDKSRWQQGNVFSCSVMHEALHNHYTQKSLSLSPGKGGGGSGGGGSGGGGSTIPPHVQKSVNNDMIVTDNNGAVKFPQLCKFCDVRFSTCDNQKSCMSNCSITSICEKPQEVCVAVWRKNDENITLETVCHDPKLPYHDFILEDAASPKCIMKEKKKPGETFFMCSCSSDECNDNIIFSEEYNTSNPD
# VL: EIVLTQSPGTLSLSPGERATLSCHASQGISNYVAWYQQKPGQAPRLLIYDASNRATGIPDRFSGSGSGTDFTLTISHLEPEDFAVYYCQQSYSTLLTFGQGTKVEIK
# notes: also called #2 (TRAP); B7-H3/TGFβ bispecific molecule #2
# B13: #2 (mono) B7-H3 mono antibody free of TGFβ binding portion (antibody, human IgG1, N297A, V domains shown)
# VH: EVQLLESGGGLVQPGGSLRLSCAASGFTFSAYYMIWVRQAPGKGLEWVSITNPSGGVTSYAQKFQGRFTISRDNSKNTLYLQMNSLRAEDTAVYYCARVGGRGFDIWGQGTLVTVSS
# VL: EIVLTQSPGTLSLSPGERATLSCHASQGISNYVAWYQQKPGQAPRLLIYDASNRATGIPDRFSGSGSGTDFTLTISHLEPEDFAVYYCQQSYSTLLTFGQGTKVEIK
# What was measured:
# [1] = biological target: T1, recombinant human B7-H3 protein (R&D Systems, Cat #1027-B3-100) (human, UniProt Q5ZPR3-2 29-245); experiment: ELISA; plate-coated recombinant human B7-H3, bispecific titrated
# T1 construct: Bought protein; also called CD276
# T1 sequence (looked up): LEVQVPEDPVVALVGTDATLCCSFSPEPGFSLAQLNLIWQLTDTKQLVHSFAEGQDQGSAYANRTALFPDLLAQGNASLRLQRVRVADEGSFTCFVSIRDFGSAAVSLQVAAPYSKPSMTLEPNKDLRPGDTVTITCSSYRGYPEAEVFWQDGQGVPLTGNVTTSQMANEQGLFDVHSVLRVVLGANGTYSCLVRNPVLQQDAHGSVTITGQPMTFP
# Protocol: After coating a plate with recombinant human B7-H3 protein (R&D Systems, Cat #1027-B3-100) (30 μL, 20 nM) in 1×PBS solution, the plate was covered and coated overnight at 2 to 8° C. Thereafter, the wells were washed once with 150 μL PBS per well, and blocked with 120 μL of blocking buffer (1×PBS-T w/3% BSA) per well for 2 hours at room temperature. The blocking buffer was discarded and 30 μL of antibody solution was added using a series of dilution solutions (using the blocking buffer, #1 to #9 bispecific molecules were diluted in serial by two times; 2-fold serial dilution), and reacted at room temperature for 1 hour, then the wells were washed three times with 150 μL of wash buffer per well. 30 μL of HRP conjugate of anti-HA Tag antibody diluted in the blocking buffer was added to each well, and reacted at room temperature for 1 hour. Thereafter, the wells were washed three times with 150 μL of washing buffer per well, the HRP reaction was developed using TMB, the reaction was stopped with 1 N HCl, and then the optical density (OD) was measured at 450 nm.
# It was confirmed that #1 to #9 bispecific molecules specifically bind to B7-H3 with excellent binding force.
# [2] = biological target: T2, recombinant human TGFβ1 protein (R&D Systems, Cat #7754-BH-025/CF) (human, UniProt P01137 279-390); experiment: ELISA; plate-coated TGFβ1, bispecific titrated, anti-human IgG1 Fc-HRP
# T2 construct: Bought protein
# T2 sequence (P01137 279-390 limits assumed): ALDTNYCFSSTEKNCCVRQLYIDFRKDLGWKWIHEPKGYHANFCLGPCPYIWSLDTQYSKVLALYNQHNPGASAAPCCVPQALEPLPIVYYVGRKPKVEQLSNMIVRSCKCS
# Protocol: (§1) After coating a plate with each of recombinant human TGFβ1 protein (R&D Systems, Cat #7754-BH-025/CF) and TGFβ3 protein (R&D Systems, Cat #8420-B3-025/CF) (30 μL, 0.5 μg/ml) in 1×PBS solution, the plate was covered and cultured overnight at 2 to 8° C. Thereafter, the wells were washed once with 150 μL PBS per well, and blocked with 120 μL of blocking buffer (1×PBS-T w/3% BSA) per well for 2 hours at room temperature. The blocking buffer was discarded and 30 μL solution containing #1 to #9 bispecific molecules (5-fold serial dilution) was added, followed by reaction for 1 hour at room temperature. Then, the wells were washed three times with 150 μL PBS per well. 30 μL of HRP conjugated anti-Human IgG1 Fc Ab diluted in the blocking buffer was added to each well, and reacted at room temperature for 1 hour. Thereafter, the wells were washed three times with 150 μL of washing buffer per well, the HRP reaction was developed using TMB, and the reaction was stopped with 30 μL 1 N HCl. Then, the optical density (OD) was measured at 450 nm.
# [3] = biological target: T3, recombinant human TGFβ2 (R&D Systems, Cat #302-B2-010/CF) (human, UniProt P61812 303-414); experiment: ELISA; plate-coated bispecific, TGFβ2 titrated (EC50 is a TGFβ2 concentration), biotinylated anti-TGFβ2 detection
# T3 construct: Bought protein
# T3 sequence (looked up): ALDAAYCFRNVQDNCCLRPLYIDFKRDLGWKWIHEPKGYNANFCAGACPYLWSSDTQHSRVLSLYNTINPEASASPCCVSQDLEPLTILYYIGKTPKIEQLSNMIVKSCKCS
# Protocol: After coating a plate with 1×PBS solution containing #1 to #9 bispecific molecules (30 μL, 0.5 μM), the plate was covered and cultured overnight at 2 to 8° C. Thereafter, the wells were washed once with 150 μL PBS per well, and blocked with 120 µL of blocking buffer (1×PBS-T w/3% BSA) per well for 2 hours at room temperature. The blocking buffer was discarded, recombinant human TGFβ2 (R&D Systems, Cat #302-B2-010/CF) was 4-fold diluted in serial from 30 nM. After adding each diluted solution to the wells by 30 μL per well, it was reacted at room temperature for 1 hour. Then, the wells were washed three times with 150 μL of washing buffer (1×PBS-T) per well, followed by diluting Biotinylated-TGF-beta2 antibody combined with the recombinant human TGFβ2 protein in the blocking buffer. After adding the diluted solution to the wells by 30 μL per well, it was reacted at room temperature for 1 hour. Further, after washing the wells three times with 150 μL of washing buffer (1×PBS-T) per well, 30 μL of streptavidin-HRP diluted in the blocking buffer was added to each well, and reacted at room temperature for 1 hour. After washing the wells three times with 150 μL of washing buffer (1×PBS-T) per well, HRP reaction was developed using TMB, and the reaction was stopped with 30 μL 1 N HCl. Then, the optical density (OD) was measured at 450 nm.
# [4] = biological target: T4, recombinant human TGFβ3 protein (R&D Systems, Cat #8420-B3-025/CF) (human, UniProt P10600 301-412); experiment: ELISA; plate-coated TGFβ3, bispecific titrated, anti-human IgG1 Fc-HRP
# T4 construct: Bought protein
# T4 sequence (looked up): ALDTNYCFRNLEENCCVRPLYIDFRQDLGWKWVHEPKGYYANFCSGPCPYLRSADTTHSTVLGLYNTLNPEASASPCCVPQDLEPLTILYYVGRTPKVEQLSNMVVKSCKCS
# Protocol: as §1
# [5] = biological target: T2, recombinant human TGFβ1 protein (R&D …); experiment: bridging ELISA; plate-coated TGFβ1, bispecific titrated, detected with His-tag human B7-H3 and anti-His-HRP
# Protocol: After coating a plate with the recombinant human TGFβ1 protein (30 μL, 0.5 μg/ml) in 1×PBS solution, the plate was covered and cultured overnight at 2 to 8° C. Thereafter, the wells were washed once with 150 μL PBS per well, and blocked with 120 µL of blocking buffer (1×PBS-T w/3% BSA) per well for 2 hours at room temperature. The blocking buffer was discarded and 4-fold diluted antibody solution was added by 30 μL, followed by reaction for 2 hour at room temperature. Then, the wells were washed three times with 150 μL of washing buffer (1×PBS-T) per well.
# Thereafter, 30 μL of His-tag human B7-H3 protein diluted in the blocking buffer was added to each well, and cultured at room temperature for 2 hours. Thereafter, the wells were washed three times with 150 μL of washing buffer per well. 30 μL of HRP conjugate of anti-His tag antibody diluted in the blocking buffer was added to each well, and reacted at room temperature for 1 hour. Thereafter, the wells were washed three times with 150 μL of washing buffer per well, the HRP reaction was developed using TMB, and the reaction was stopped with 30 μL 1 N HCl. Then, the optical density (OD) was measured at 450 nm.
# [6] = biological target: T2, recombinant human TGFβ1 protein (R&D …); experiment: bridging ELISA on plate-coated TGFβ1, detected with His-tag human B7-H3; paragraph 158 says the mono antibodies are not bound to TGFβ1
Binder,EC50 [1] [nM],EC50 [2] [nM],EC50 [3] [nM],EC50 [4] [nM],EC50 [5] [nM],binding result [6]
B1,29.3,2.02,0.13,3.32,1.96,
B2,,,,,,no binding
B3,12.2,24.8,0.12,8.09,3.15,
B4,5.94,4.39,0.076,3.8,2.11,
B5,,,,,,no binding
B6,1.34,9.08,0.083,4.56,2.21,
B7,6.11,3.94,0.143,5.98,1.56,
B8,10.2,3.62,0.143,3.14,3.74,
B9,27.5,3.84,0.136,4.72,3.83,
B10,,,,,,no binding
B11,1.72,3.41,2.08,2.94,1.98,
B12,3.19,5.83,0.14,7.92,1.43,
B13,,,,,,no binding

# Source: patent US20240287190A1 (THERANOTICS, published 2024)
